Source: US20060269997A1 (Genentech, published 2006)
Residue numbers refer to the chain shown, from its start. Names may count otherwise.

B1: LK-VRB-2f (ligand, human, UniProt P15692-4 27-191, looked up)
chain: APMAEGGGQNHHEVVKFMDVYQRSYCHPIETLVDIFQEYPDEIEYIFKPSCVPLMRCGGCCNSEMRECVPTEESNITMQIMRIKPHQGQHIGEMSFLQHNKCECRPKKDRARQENPCGPCSERRKHLFVQDPQTCKCSCKNTDSRCKARQLELNERTCRCDKPRR
notes: also called KDR-selective VEGF variant; KDR-sel
B2: WT VEGF (ligand, human, UniProt P15692-4 27-191, looked up)
VEGF monomer: B1 chain with S63D, M65G, R66L
B3: native VEGF (8-109) (ligand, human, UniProt P15692 214-315, looked up)
chain: GQNHHEVVKFMDVYQRSYCHPIETLVDIFQEYPDEIEYIFKPSCVPLMRCGGCCNDEGLECVPTEESNITMQIMRIKPHQGQHIGEMSFLQHNKCECRPKKD
modifications: biotinylated where used as tracer
B4: Flt-sel (I43A/I46A/Q79A/I83A, VEGF 1-109 form) (ligand, human, UniProt P15692-4 27-135, looked up)
chain: APMAEGGGQNHHEVVKFMDVYQRSYCHPIETLVDIFQEYPDEAEYAFKPSCVPLMRCGGCCNDEGLECVPTEESNITMAIMRAKPHQGQHIGEMSFLQHNKCECRPKKD
notes: also called Flt-1-sel; Flt-1 selective variant
B5: LK-VRB-7s* (ligand, human, UniProt P15692-4 27-135, looked up)
chain: B4 chain with M18E, A43I, A46I, D63S, G65M, L66R, A79Q, A83I
B6: LK-VRB-2s* (ligand, human, UniProt P15692-4 27-135, looked up)
chain: B4 chain with A43I, A46I, D63S, G65M, L66R, A79Q, A83I
notes: also called KDR selective variant
B7: LK-VRB-1s* (ligand, human, UniProt P15692-4 27-135, looked up)
chain: B4 chain with M18E, Y21L, Q22R, Y25S, A43I, A46I, A79Q, A83I
B8: LK-VRB-8s* (ligand)
chain: B4 chain with Y21L, A43I, A46I, D63S, G65M, L66R, A79Q, A83I
B9: LK-VRB-4s (ligand, human, UniProt P15692-4 27-135, looked up)
chain: B4 chain with F17I, M18E, Y21F, Q22E, Y25I, A43I, A46I, A79Q, A83I
B10: LK-VRB-3s (ligand, human, UniProt P15692-4 27-135, looked up)
chain: B4 chain with F17I, M18E, Y21F, Q22K, Y25S, A43I, A46I, A79Q, A83I

Tests used:
[1] = biological target: T1, Flt-IgG (a chimeric Flt-human Fc molecule) (UniProt P17948 27-758, limits assumed); assay: competition ELISA vs biotinylated native VEGF, Flt-IgG captured by anti-Fc
T1 construct: Only described as a chimeric Flt-human Fc molecule; not shown: human Fc
Method: (§1) Receptor binding assays were performed in 96-well immunoplates (Maxisorp, Nunc-Immunoplate, Nalge Nunc International, Rochester, N.Y.). Each well was coated with 100 μl of a solution containing 2 μg/ml of rabbit F(ab′)2 to human IgG Fc (Jackson ImmunoResearch, West Grove, Pa.) in 50 mM carbonate buffer at pH 9.6 and incubated at 4° C. overnight. The supernatant was then discarded, the wells were washed three times in washing buffer (0.05% Tween 20 in PBS), and the plate was blocked (150 μl per well) with block buffer (0.5% BSA, 0.01% thimerosal in PBS) at room temperature for one hour. The supernatant was discarded, and the wells were washed.
The wells were filled with 100 μl of a solution containing Flt-IgG (a chimeric Flt-human Fc molecule) at 50 ng/ml in assay buffer (0.5% BSA, 0.05% Tween 20 in PBS). The wells were incubated at room temperature for 1 hour and then washed three times in wash buffer (0.05% Tween 20 in PBS).
(§2) Aliquots of the mixture (100 μl) were added to the precoated microtiter wells and the plate was incubated for 2 hours at room temperature. […] The wells were then incubated with 3,3′, 5,5′-tetramethyl benzidine (0.2 g/liter, Kirkegaard & Perry Laboratories, Gaithersburg, Md.) for about 10 minutes at room temperature. Absorbance was read at 450 nm on a Vmax plate reader (Molecular Devices, Menlo Park, Calif.).

[2] = biological target: KDR on human umbilical vein endothelial cells (HUVEC) (human, UniProt P35968 20-1356); assay: cell-based or functional assay
[3] = biological target: T2, Flt-1 on Flt-1-transfected NIH3T3 cells (UniProt P17948 27-1338, limits assumed); assay: competitive displacement of 125I-VEGF (legend: 1-165; Example 7: 1-109) from Flt-1-transfected NIH3T3 cells
T2 construct: whole, on cells; also called FLT-1 expressing NIH3T3 cells; Flt-1-transfected cells
Method: (§3) KDR or Flt-1 transfected NIH3T3 cells were prepared as described by Fuh et al., J. Biol. Chem., 273:11187-11204 (1998). The transfected cells were maintained in F12 media supplemented with 10% FBS and 400 ug/ml G418 (GibcoBRL). For the binding assays, the cells were plated in 12-wells plates at 1×10⁶/well to reach confluency next day. […] The plates were incubated at 4° C. for three hours and then washed two times with HBS with […].

[4] = biological target: gD-KDR receptor on CHO cells (UniProt P35968 20-1356); assay: cell-based or functional assay
KDR (1-3) monomer [5] = biological target: T3, KDR (1-3) monomer (UniProt P35968 20-327, limits assumed, biotin-labeled in the ELISA of Example 8); assay: competition ELISA: inhibits binding of biotinylated native VEGF (8-109) to KDR (1-3) captured by antibody MAKD5 (Example 2)
T3 construct: domain: domains 1 to 3; Genentech reagent; also called domains 1 to 3 of KDR
Method: as §1, with “containing 8” for “containing 2”, “of a monoclonal antibody” for “of rabbit F(ab′)2”, “to KDR known as MAKD5 (Genentech, South San Francisco, Calif.)” for “to human IgG Fc (Jackson ImmunoResearch, West Grove, Pa.)”, “was” for “was then”
as §2, with “of this” for “of the”, “for 1 hour” for “for 2 hours”, “(0.2 gram/liter;” for “(0.2 g/liter,”
(§4) Titration curves were fit with a four-parameter nonlinear regression curve-fitting program (KaleidaGraph, Synergy Software, Reading, Pa.).

[6] = biological target: T4, KDR on KDR-transfected NIH3T3 cells (UniProt P35968 20-1356, limits assumed); assay: competitive displacement of 125I-VEGF (legend: 1-165; Example 7: 1-109) from KDR-transfected NIH3T3 cells
T4 construct: whole, on cells; also called KDR expressing NIH3T3 cells; KDR-transfected 3T3 cells
Method: as §3

[7] = biological target: KDR receptor (soluble RIA of Examples 6 and 8) (UniProt P35968); assay: soluble radio-immuno receptor-binding assay (RIA)
KDR (1-3) monomer [8] = biological target: T3, KDR (1-3) monomer; assay: competition ELISA vs biotinylated VEGF (8-109), soluble KDR (1-3) captured by MAKD5
Method: as §1, with “containing 8” for “containing 2”, “of a monoclonal antibody” for “of rabbit F(ab′)2”, “to KDR known as MAKD5 (Genentech, South San Francisco, Calif.)” for “to human IgG Fc (Jackson ImmunoResearch, West Grove, Pa.)”, “was” for “was then”
as §2, with “of this” for “of the”, “for 1 hour” for “for 2 hours”, “(0.2 gram/liter;” for “(0.2 g/liter,”
as §4

[9] = biological target: KDR receptor (soluble RIA of Examples 6 and 8) (UniProt P35968 20-764, limits assumed); assay: radio-immuno receptor-binding assay (RIA)
[10] = biological target: FLT-1 receptor (soluble RIA of Examples 6 and 8) (UniProt P17948 27-758, limits assumed); assay: radio-immuno receptor-binding assay (RIA)
Chain of FLT-1 receptor (soluble RIA of Examples 6 and 8) (P17948 27-758 limits assumed): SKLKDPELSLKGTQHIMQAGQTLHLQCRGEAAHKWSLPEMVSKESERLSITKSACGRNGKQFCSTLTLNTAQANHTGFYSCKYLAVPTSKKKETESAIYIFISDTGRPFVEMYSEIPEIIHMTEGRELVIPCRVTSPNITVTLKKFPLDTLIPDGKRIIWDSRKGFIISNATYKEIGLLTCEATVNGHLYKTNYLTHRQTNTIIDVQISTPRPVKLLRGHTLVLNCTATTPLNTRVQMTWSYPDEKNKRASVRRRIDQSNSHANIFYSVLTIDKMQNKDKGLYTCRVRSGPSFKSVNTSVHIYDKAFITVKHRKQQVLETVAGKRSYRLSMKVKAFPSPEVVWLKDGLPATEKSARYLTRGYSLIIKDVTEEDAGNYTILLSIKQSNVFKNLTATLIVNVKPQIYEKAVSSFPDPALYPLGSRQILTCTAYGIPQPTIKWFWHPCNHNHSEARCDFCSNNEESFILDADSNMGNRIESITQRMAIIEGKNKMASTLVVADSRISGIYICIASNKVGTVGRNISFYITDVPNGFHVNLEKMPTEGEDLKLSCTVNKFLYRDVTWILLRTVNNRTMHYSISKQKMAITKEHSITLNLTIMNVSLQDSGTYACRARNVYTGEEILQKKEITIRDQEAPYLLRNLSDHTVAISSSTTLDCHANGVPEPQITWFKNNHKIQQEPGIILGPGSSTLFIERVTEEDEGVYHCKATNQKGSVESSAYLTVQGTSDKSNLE

T2 sequence (P17948 27-1338 limits assumed): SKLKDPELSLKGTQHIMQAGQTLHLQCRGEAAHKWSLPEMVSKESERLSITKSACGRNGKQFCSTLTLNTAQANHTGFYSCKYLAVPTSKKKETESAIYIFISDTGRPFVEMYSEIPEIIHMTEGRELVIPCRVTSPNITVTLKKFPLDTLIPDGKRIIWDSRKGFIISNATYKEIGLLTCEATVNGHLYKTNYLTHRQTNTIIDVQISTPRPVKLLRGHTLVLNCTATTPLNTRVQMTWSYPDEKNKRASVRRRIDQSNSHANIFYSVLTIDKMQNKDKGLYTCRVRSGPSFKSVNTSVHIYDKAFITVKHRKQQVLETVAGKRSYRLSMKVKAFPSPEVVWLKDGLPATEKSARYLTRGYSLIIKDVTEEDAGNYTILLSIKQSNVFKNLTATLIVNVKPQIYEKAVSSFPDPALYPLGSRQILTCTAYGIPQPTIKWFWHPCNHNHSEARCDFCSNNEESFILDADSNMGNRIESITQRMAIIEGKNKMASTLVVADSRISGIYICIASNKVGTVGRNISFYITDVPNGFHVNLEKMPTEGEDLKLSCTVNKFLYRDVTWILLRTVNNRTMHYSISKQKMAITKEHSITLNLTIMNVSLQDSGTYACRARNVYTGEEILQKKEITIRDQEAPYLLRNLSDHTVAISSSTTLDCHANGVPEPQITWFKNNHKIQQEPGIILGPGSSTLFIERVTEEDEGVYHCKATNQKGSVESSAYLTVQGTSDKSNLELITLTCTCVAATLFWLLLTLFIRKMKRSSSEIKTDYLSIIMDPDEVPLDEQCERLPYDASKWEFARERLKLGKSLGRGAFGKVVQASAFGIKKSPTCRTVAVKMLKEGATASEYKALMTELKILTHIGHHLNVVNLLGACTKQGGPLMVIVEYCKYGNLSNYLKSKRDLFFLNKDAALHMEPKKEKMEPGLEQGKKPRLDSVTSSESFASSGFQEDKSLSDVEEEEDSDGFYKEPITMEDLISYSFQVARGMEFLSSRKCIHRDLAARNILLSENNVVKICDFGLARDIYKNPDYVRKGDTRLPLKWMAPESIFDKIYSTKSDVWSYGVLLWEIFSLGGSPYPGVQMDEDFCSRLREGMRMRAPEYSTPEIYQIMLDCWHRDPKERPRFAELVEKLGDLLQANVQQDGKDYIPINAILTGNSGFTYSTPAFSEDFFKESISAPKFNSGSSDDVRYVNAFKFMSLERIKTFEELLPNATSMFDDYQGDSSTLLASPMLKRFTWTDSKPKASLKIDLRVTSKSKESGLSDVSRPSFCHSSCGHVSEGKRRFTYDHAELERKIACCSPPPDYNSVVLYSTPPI
Chain of KDR on human umbilical vein endothelial cells (HUVEC) (P35968 20-1356): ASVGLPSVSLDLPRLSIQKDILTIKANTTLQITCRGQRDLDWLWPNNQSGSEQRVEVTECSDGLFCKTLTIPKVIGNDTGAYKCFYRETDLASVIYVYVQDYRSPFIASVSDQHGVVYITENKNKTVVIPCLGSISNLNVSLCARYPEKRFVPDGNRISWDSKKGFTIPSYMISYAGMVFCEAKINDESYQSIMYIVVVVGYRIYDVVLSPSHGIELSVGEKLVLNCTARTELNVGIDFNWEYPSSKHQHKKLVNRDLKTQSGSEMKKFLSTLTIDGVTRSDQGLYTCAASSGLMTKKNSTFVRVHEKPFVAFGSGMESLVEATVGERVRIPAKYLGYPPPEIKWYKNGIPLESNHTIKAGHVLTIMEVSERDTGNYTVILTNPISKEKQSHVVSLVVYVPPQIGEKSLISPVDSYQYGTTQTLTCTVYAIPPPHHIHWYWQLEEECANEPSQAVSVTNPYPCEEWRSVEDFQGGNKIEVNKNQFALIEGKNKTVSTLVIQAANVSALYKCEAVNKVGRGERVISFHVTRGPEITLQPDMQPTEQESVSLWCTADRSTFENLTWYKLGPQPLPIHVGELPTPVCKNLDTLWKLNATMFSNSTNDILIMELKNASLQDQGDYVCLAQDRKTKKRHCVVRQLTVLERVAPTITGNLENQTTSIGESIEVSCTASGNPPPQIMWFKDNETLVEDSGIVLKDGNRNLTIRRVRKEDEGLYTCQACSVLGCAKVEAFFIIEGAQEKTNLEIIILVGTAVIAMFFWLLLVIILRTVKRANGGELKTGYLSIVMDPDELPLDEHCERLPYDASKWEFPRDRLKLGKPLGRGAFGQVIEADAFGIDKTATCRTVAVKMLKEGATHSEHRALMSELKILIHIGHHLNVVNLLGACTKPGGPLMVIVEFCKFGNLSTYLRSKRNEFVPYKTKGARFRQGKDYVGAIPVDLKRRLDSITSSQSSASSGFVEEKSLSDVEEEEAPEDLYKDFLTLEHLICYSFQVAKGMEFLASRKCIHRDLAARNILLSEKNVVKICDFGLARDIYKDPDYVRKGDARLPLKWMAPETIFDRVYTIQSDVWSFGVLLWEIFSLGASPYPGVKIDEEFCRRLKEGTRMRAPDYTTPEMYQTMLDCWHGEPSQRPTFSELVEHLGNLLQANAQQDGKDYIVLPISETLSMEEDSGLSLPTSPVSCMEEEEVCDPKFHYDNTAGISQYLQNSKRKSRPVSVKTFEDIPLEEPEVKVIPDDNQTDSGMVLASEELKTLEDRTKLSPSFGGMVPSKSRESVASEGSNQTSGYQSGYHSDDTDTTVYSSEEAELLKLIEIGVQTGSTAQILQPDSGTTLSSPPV
T3 sequence (P35968 20-327 limits assumed): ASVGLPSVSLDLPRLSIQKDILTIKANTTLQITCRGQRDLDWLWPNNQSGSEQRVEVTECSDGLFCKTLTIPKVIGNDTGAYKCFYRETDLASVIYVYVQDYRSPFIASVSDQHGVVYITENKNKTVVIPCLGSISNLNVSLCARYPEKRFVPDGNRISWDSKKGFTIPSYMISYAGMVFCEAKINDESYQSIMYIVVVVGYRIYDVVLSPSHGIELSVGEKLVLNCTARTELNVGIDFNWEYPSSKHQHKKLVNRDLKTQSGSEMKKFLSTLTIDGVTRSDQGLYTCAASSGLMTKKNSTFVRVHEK
T1 sequence (P17948 27-758 limits assumed, change not shown): as the sequence (P17948 27-758 limits assumed) above
T4 sequence (P35968 20-1356 limits assumed): as the sequence (P35968 20-1356) above
Chain of KDR receptor (soluble RIA of Examples 6 and 8) (UniProt P35968) (P35968 20-764 limits assumed): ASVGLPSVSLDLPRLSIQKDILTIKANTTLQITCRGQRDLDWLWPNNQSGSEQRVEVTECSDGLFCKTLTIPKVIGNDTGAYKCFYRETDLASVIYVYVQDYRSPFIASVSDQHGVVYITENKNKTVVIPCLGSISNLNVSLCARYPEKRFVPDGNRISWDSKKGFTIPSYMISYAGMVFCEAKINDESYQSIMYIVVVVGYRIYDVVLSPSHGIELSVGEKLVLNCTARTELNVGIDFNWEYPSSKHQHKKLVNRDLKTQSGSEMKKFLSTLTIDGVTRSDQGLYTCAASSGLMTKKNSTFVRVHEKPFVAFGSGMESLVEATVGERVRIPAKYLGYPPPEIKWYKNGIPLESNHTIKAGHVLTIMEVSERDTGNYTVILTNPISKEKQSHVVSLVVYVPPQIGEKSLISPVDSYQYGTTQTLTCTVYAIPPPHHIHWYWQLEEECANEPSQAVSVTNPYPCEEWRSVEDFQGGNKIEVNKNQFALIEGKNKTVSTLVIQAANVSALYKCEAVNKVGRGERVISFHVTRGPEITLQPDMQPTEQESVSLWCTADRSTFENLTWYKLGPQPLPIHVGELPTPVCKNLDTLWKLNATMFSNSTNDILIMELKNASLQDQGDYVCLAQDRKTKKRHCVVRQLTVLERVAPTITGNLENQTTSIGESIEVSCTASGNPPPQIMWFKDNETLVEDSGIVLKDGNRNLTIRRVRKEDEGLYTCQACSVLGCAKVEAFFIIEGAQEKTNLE
Chain of KDR receptor (soluble RIA of Examples 6 and 8) (UniProt P35968 20-764, limits assumed) (P35968 20-764 limits assumed): as above

Binder	IC50 [1]	Endothelial Cell Proliferation Activity (HUVEC, 3H-thymidine), concentration [2]	Phosphorylation-Inducing Activity (KIRA), midpoint concentration [4]	IC50 (KDR (1-3) monomer [8])	Relative Binding Affinity (ratio to native VEGF (8-109)) (KDR (1-3) monomer [8])	Endothelial Cell Proliferation Activity (HUVEC), ratio to native VEGF (8-109) [2]	Phosphorylation-Inducing Activity (KIRA), ratio to native VEGF (8-109) [4]	Relative Binding Affinity (ratio to native VEGF (8-109)) [1]	also measured
B1	19 nM	0.05 nM	–	–	–	–	–	–	–
B2	–	–	–	–	–	–	–	–	IC50 (read off the curve) [3]: ~0.04 nM
B3	0.42 nM	0.5 nM	2 nM	–	–	–	–	–	IC50 (read off the curve) (KDR (1-3) monomer [5]): ~2 nM
B4	–	–	–	–	–	–	–	–	binding result [3]: binds; binding result [6]: no binding (tested: log -6.7 M (about 2e-7 M)); fold reduced KDR-binding affinity (against native VEGF) [7]: > 470 fold
B5	–	0.5 nM	–	1 nM	1 fold	1 fold	–	–	–
B6	–	0.05 nM	2 nM	–	–	–	–	–	IC50 (read off the curve) [3]: ~10 nM; IC50 (read off the curve) [6]: ~0.8 nM
B7	2700 nM	0.1 nM	1 nM	1 nM	1 fold	0.2 fold	0.5 fold	6000 fold	Relative Binding Affinity (ratio to native VEGF 165) [9]: 20 fold; Relative Binding Affinity (ratio to native VEGF 165) [10]: 14000 fold
B8	–	0.5 nM	–	0.5 nM	0.5 fold	1 fold	–	–	–
B9	100 nM	–	1 nM	1 nM	1 fold	–	0.5 fold	200 fold	–
B10	170 nM	–	2 nM	1 nM	1 fold	–	1 fold	400 fold	–
